Assay: Determination of structural forms by Superdex G-75 column elution
Type: physicochemical
Settings: for Peak profile / Retention Time: Superdex G-75 column (HR 10/30), phosphate buffered saline pH 7.4, flow rate 0.4 ml/min, sample 1.2 mg/ml; for Structural form (monomeric or polymeric): concluded from retention time and peak profile versus positive control [B28Lys, B29Pro] human insulin
Description: […] A preparation of each analogue is passed through Superdex G-75 column (HR 10/30). HI and [B28Lys, B29Pro] insulin (Lispro) are used as negative and positive controls respectively. Phosphate buffered saline pH 7.4 is used as an elution buffer and the flow rate fixed at 0.4 ml/min. The concentration of the sample preparation is 1.2 mg/ml.

Substance | Peak profile | Retention Time [min] | Structural form (monomeric or polymeric)
Hl: human insulin, used as negative control [reference compound] | Unsymmetrical | 36.4 | 
[B12Thr]Hl: insulin analogue in which the 12th amino acid of the B-chain of human insulin (Val) is substituted by Thr | Symmetrical | 39.4 | monomeric
[B16Ala]Hl: human insulin analogue with replacement of Tyr by Ala in position B16 | Symmetrical | 38.3 | monomeric
[B26Ala]Hl: human insulin analogue with replacement of Tyr by Ala in position B26 | Symmetrical | 38.9 | monomeric
[B28Lys, B29Pro]Hl: commercial monomeric insulin with inversion of amino acids 28 and 29 of the B chain of human insulin; positive control [reference compound] | Symmetrical | 39.4 | 
